The target in this experiment is Pcdh γB6 ectodomain, γB6_(EC1–6), wild type. Nature of the experiment: cryo-EM structure.

These results are taken from article PMC6736547.

Substance “Pcdh γB6 ectodomain, γB6_(EC1–6), wild type (domain or fragment)” registered a stoichiometry N of 4.
